Measurements taken from patent US20180094045A1 (ASCLEPIUS SUZHOU TECHNOLOGY COMPANY GROUP, published 2018).

Experiments:
[1] = target: T1, Robo1 (ORIGEN Company, number: TP327713) (UniProt Q9Y6N7 26-1651, limits assumed); experiment: SPR (BIAcore), Robo1 bound on CM5 chip; column head 'Kd (nM)'
T1 construct: also called receptor Robo1; target protein Robo1
Description: (§1) The affinity constant between the prepared protein and Robo1 was determined by SPR (Surface Plasmon resonance BIAcore200). The Robo1 (ORIGEN Company, number: TP327713) was bound on CM5 chip and used to analysis the interaction between fusion protein Slit2D2-HSA and receptor Robo1. Kinetic measurements were carried out according to the method referred by Canziani et al. (2004, Anal. Biochem. 325:301-307), simultaneously, the same method was applied to measure the affinity between Slit2N protein (Slit2N is a protein at N-terminal of slit2 with a molecular weight of about 120 KDa) and Robo1.

[2] = target: T1, Robo1 (ORIGEN Company, number: TP327713); experiment: SPR (BIAcore), Robo1 bound on CM5 chip
Description: as §1

T1 sequence (Q9Y6N7 26-1651 limits assumed): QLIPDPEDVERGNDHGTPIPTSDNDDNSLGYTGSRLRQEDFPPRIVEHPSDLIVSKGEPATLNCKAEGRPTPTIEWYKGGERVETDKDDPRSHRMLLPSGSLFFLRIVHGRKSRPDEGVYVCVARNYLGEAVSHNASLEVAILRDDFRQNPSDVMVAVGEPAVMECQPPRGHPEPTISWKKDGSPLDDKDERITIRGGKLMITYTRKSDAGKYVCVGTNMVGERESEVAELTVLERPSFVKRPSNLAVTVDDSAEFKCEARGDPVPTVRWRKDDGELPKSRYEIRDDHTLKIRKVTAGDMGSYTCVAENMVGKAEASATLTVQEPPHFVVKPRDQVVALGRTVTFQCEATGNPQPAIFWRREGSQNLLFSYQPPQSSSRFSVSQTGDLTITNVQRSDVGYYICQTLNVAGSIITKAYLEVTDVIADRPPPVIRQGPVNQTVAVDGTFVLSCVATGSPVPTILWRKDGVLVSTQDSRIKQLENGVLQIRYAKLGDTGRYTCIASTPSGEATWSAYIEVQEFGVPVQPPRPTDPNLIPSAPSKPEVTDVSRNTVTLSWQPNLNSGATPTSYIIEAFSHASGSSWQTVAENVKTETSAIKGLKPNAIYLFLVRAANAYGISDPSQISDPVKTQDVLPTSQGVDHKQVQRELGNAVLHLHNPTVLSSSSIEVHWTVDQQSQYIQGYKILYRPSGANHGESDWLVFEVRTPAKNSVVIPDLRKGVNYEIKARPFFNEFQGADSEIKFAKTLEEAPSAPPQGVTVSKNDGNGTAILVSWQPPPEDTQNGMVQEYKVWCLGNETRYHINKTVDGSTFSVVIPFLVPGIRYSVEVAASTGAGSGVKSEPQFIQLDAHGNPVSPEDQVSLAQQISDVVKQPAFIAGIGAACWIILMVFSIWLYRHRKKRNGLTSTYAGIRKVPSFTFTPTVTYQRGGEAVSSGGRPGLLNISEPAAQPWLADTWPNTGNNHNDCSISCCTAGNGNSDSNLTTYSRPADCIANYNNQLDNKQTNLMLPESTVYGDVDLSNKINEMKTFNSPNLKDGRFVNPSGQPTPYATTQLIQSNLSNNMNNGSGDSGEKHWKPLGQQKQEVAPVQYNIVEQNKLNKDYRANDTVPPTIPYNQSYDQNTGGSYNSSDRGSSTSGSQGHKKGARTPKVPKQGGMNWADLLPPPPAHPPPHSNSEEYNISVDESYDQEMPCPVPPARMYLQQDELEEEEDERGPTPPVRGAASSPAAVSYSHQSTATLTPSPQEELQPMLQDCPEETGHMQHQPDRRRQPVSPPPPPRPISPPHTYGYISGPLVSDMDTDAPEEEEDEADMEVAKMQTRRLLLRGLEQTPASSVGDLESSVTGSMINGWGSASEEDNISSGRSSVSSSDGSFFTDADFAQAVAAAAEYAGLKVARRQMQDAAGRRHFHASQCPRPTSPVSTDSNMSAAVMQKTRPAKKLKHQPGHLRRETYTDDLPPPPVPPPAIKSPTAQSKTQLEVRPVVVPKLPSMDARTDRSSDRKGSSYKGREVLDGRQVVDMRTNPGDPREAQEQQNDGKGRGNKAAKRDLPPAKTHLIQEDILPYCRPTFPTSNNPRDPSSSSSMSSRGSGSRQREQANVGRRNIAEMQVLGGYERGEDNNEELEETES

B1: Slit2N protein (ligand, UniProt O94813 31-1121, looked up)
chain: QCSCSGSTVDCHGLALRSVPRNIPRNTERLDLNGNNITRITKTDFAGLRHLRVLQLMENKISTIERGAFQDLKELERLRLNRNHLQLFPELLFLGTAKLYRLDLSENQIQAIPRKAFRGAVDIKNLQLDYNQISCIEDGAFRALRDLEVLTLNNNNITRLSVASFNHMPKLRTFRLHSNNLYCDCHLAWLSDWLRQRPRVGLYTQCMGPSHLRGHNVAEVQKREFVCSGHQSFMAPSCSVLHCPAACTCSNNIVDCRGKGLTEIPTNLPETITEIRLEQNTIKVIPPGAFSPYKKLRRIDLSNNQISELAPDAFQGLRSLNSLVLYGNKITELPKSLFEGLFSLQLLLLNANKINCLRVDAFQDLHNLNLLSLYDNKLQTIAKGTFSPLRAIQTMHLAQNPFICDCHLKWLADYLHTNPIETSGARCTSPRRLANKRIGQIKSKKFRCSAKEQYFIPGTEDYRSKLSGDCFADLACPEKCRCEGTTVDCSNQKLNKIPEHIPQYTAELRLNNNEFTVLEATGIFKKLPQLRKINFSNNKITDIEEGAFEGASGVNEILLTSNRLENVQHKMFKGLESLKTLMLRSNRITCVGNDSFIGLSSVRLLSLYDNQITTVAPGAFDTLHSLSTLNLLANPFNCNCYLAWLGEWLRKKRIVTGNPRCQKPYFLKEIPIQDVAIQDFTCDDGNDDNSCSPLSRCPTECTCLDTVVRCSNKGLKVLPKGIPRDVTELYLDGNQFTLVPKELSNYKHLTLIDLSNNRISTLSNQSFSNMTQLLTLILSYNRLRCIPPRTFDGLKSLRLLSLHGNDISVVPEGAFNDLSALSHLAIGANPLYCDCNMQWLSDWVKSEYKEPGIARCAGPGEMADKLLLTTPSKKFTCQGPVDVNILAKCNPCLSNPCKNDGTCNSDPVDFYRCTCPYGFKGQDCDVPIHACISNPCKHGGTCHLKEGEEDGFWCICADGFEGENCEVNVDDCEDNDCENNSTCVDGINNYTCLCPPEYTGELCEEKLDFCAQDLNPCQHDSKCILTPKGFKCDCTPGYVGEHCDIDFDDCQDNKCKNGAHCTDAVNGYTCICPEGYSGLFCEFSPPMVLPR
notes: domain: protein at N-terminal of slit2 with a molecular weight of about 120 KDa; Comparator in the SPR experiment
- Kd [1]: 4.5 nM
- kon [2]: 744000 M⁻¹ s⁻¹
